# Laboratory results from patent publication US20260258115A1 (MAPP BIOPHARMACEUTICAL, published 2026).
# Where a chain is given by its changes, count along the chain named.
# B1: ADI-14578 (antibody, V domains shown)
# VH: QVQLVQSGAEVKKPGSSVKVSCKASGGTFNNYAINWVRQAPGQGLEWMGGIIPMFGTANYAQKFQGRVTMTADESTSTAYMELSSLRSEDTAVYYCASSQIFVGGNYYKLEFDNWGQGTLVTVSS
# VL: QSVLTQPPSVSAAPGQKVTISCSGSNSNIGYNDVSWYQQLPGTAPQLLIYDNNKRTSGIPDRFSGSKFGTSATLGITGLQTGDEADYYCGTWDSSLSTVIFGGGTKLTVL
# B2: ADI-14597 (antibody, V domains shown)
# VH: EVQLVESGGVVVQPGGSLRLSCAVSGFNFDDYSMHWVRQLPGKGLEWVSLISWDGGITYYADSVKGRFTISRDNSKNSLYLQMNSLRTEDTALYYCAKDGNRYSDNDYYFDYWGQGTLVTVSS
# VL: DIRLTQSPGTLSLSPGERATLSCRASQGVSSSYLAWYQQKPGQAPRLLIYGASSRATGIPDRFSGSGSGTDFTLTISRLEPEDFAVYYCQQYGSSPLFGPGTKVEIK
# B3: ADI-14600 (antibody, V domains shown)
# VH: QVQLVQSGGGLVKPGGSLRLSCAASGFSFSDYYMNWIRQAPGKGLEWVSYISSSSSYTNYADSVKGRFTISRDNAKKSLYLQMNSLRAEDTAVYYCASQTYSDYARGGAFDIWGQGTTVTVSS
# VL: QSVLTQPPSVSGAPGQRVTISCTGSSSNIGAGYDVHWYQQLPGTAPKLLIYGNNNRPSGVPDRFSGSKSGTSASLAITGLQAEDEADYYCQSYDSSLSGSVFGTGTKVTVL
# B4: ADI-14602 (antibody, V domains shown)
# VH: EVQLVESGGGVVQPGGSLRLSCAASGFSFSSCGMHWVRQVSGKGLEWVAFIRYDGSNKFYADSVKGRFTISRDNSKNTLYLQMNSLRVEDTAVYYCAKGGLEDVSTGYSPHYYYGMDVWGQGTTVTVSS
# VL: QPVLTQPPSVSVSPGQTASITCSGDKLAYKYTCWYQQKPGQSPVLVIFQDSKRPSGIPERFSGSNSGNTATLTISGTQALDEADYYCQAWDSSTVVFGGGTKLTVL
# notes: also called Ab 130
# B5: ADI-14604 (antibody, V domains shown)
# VH: EVQLLESGGGLVQPGGSLRLSCSASGFTFNNYVMHWVRQAPGKGLEDASAISSNGVSTNYADSVKGRFTISRDNSKNTLYLQMRSLRAEDTALYYCVRDLIPHDSSAYYGYHGMDVWGQGTTVTVSS
# VL: QPVLTQPPSASGTPGQSVTISCSGSSSNIGTNVVNWYQQLPGTAPKLLIYSNDLRPSGVPDRFSGSKSGTSASLAISGLQSEDEANYYCAAWDDSLNGVLFGGGTKLTVL
# B6: ADI-20959 (antibody, V domains shown)
# VH: EVQLLESGAEVKKPGASVKVSCKTSGYTFSNYGVSWVRQAPGQGLEWLGWISAYNGNTNYAQKLQGRVTMTTDSSTSTAYMEVRSLRSDDTAVYYCARDVAPVAASLFDYWGQGTLVTVSS
# VL: DIRLTQSPLSLPVTLGQPASISCRSSQSLEFTDGNTYLSWFQQRPGQSPRRLIYKVSNRDSGVPDRFSGSGSGTDFTLKINRVEAEDVGVYYCMQGIHWPPTFGPGTKVEIK
# B7: ADI-20961 (antibody, V domains shown)
# VH: QVQLVESGGGLVKPGGSLRLSCAASGFKFSSYYMHWVRQAPGKGLEWVSSVSGGSTYTSYADSVKGRFTISRDNAKHSLFLQLNSLRAEDTAVYHCVRGDYHPSGTSLNWFDPWGQGTLVTVSS
# VL: B3 VL with S2P, V3G, Q39K, A45V, G52A, K68E, S98N, G99A, S100Y
# B8: ADI-20962 (antibody, V domains shown)
# VH: QVQLVQSGAEVKKPGASVKVSCKASGYTFSHYGLSWVRQAPGQGLEWMGWISAYNHNTNYAQKFQGRVTITTDTSTSTAYLEMRSLRSDDTAVYYCAREPPSDTAAGTGDYWGQGTLVTVSS
# VL: DIVMTQSPLSLSVTLGQPASISCRSSQSLVYSDGNTYLTWFQQRPGQSPRRLIYKVSNRDSGVPDRFSGSGSGTDFTLKISRVEAEDVGVYYCMQGTQWPRTFGQGTKVDIK
# B9: ADI-20964 (antibody, V domains shown)
# VH: QVQLVQSGAEVKKPGASVKVSCKASGYTFTHYGISWVRQAPGQGLEWMGWISAYNGNTNYAQKLQGRVTMTTDTSTSTAYMEVRSLRYDDTAVYYCARDVPVEAATSPEFWGQGTLVTVSS
# VL: DIVMTQTPLSLPVTLGQPASISCRSSQSLVYSDGNTYLSWFQQRPGQSPRRLIYKVSNRDSGVPNRFSGSGSGTDFTLKISRVEAEDVGVYYCVQNTHWPAYTFGQGTKVEIK
# B10: ADI-20969 (antibody, V domains shown)
# VH: EVQLVESGGGLVKPGGSLRLSCAASGFKFSSYTMNWVRQAPGKGLEWVSSVSASSSYIFYADSVQGRFIISRDNAQNSLYLQMNSLRADDTAVYYCARDQYGPGHYYNPAWFDPWGQGTLVTVSS
# VL: QPVLTQPPSVSGAPGQRVTISCTGTSSNIGAGYDVHWYKQLPGTAPKVLIYGNTNRPSGIPDRFSGSKSGTSASLAITGLKAEDEADYYCQSYDRSGSKVFGTGTKLTVL
# B11: ADI-21032 (antibody, V domains shown)
# VH: B10 VH with A24V, A97T
# VL: B10 VL with V10A, T25S, K39Q, T78I, K81Q, S96N
# notes: also called Ab 280
# B12: ADI-20970 (antibody, V domains shown)
# VH: EVQLLESGGGLVKPGGSLRLSCAVSGFSFSNAWMSWVRQAPGKGLEWVGRIRSKTDGGTTDYAAPVKGRFTISRDDSKNTLYLQMNSLKTEDTAVYYCTTAPRYSTSWYPGYYYYYYMDVWGKGTTVTVSS
# VL: DIQMTQSPSSLSASVGDRVTITCQASQDINFYLNWYQQKPGKAPKLLIYDASNLETGVPSRFSGSVSGTDFTFTISSLQPEDFATYYCQQYDDLPAFGGGTKVEIK
# B13: ADI-20971 (antibody, V domains shown)
# VH: EVQLVESGGGLVKPGESLRLSCAASGFTFSDYSMTWIRQAPGKGLLEWIAYINSQSNYMDYADSVKGRFTISRDNAKNSLYLQMNGLRADDTAVYFCARDRRTFVAATLGWFDPWGQGTLVTVSS
# VL: ETTLTQSPATLSVSPGERATLSCRASQSVSNNVAWYQQKPGQAPRVLIYAASTRATGIPARFSGSESGTEFTLTISSLQSEDFAVYYCQQYNNWPRTFGQGTKLEIK
# B14: ADI-20973 (antibody, V domains shown)
# VH: EVQLLESGGGLVKPAGSLRLSCAASGFSFSSYYMNWIRQAPGKGLEWVSDISGGSSYTNYADSVKGRFTVSRDNAKNSVYLQMNSLRGEDTAVYYCARGASTAATYTPTFDYWGQGILVTVSS
# VL: QPVLTQPPSVSGAPGQRVTISCTGSSSNIGAGYDVHWYQQLPGTAPKLLMFGNNNRPSGVPDRFSGSKSGTSASLAITGLRPEDEADYYCQSYDRRLTVVFGGGTKLTVL
# B15: ADI-20974 (antibody, V domains shown)
# VH: EVQLVESGGGLVKPGGSLRLSCAASGFSFSSYQINWVRQAPGKGLEWVSSISGGSSYTDYADSIKGRFTISRDNAKKSAFLQMKSLRADDTAVYYCARALMATAGGLAFDIWGQGTMVTVSS
# VL: B14 VL with S26G, L41V, M50I, F51L, G52R, N54T, R81Q, P82A, R96S, T98S
# B16: ADI-20979 (antibody, V domains shown)
# VH: EVQLQESGPGLVKPSETLSLTCTVSGGSLRSYYWSWIRQPPGKGLEWIGNIYYGGSTNYNSSLKGRVTISIDTSKNQFSLRLSSVTAADTAVYYCARDGLFPMGEWDYWGQGILVTVSS
# VL: QSALTQPASVSGSPGQSITISCTGTSNDVGDYNYVSWYQQHPGEAPKLMIYEVTNRPSGVSDRFSGSKSGNTASLTISGLQAEDEADYYCSSYTSSTSVVFGGGTQLTVL
# notes: also called Ab 232
# B17: ADI-20982 (antibody, V domains shown)
# VH: EVQLVESGPGLVKPSQTLSLTCSVSGVSISRGSYYWSWIRQPAGGGLEWIGRIYTSGVTRYNPSLESRVTISLDSSQNQFFLRLSSVTAADTAVYYCATRESASYSSGPDAFDIWGQGTTVTVSS
# VL: DIQMTQSPSTLSASVGDRVIITCRASQSVNSWLAWYQQKPGKAPKLLIYQASSLESGVPSRFSGSGSGTEFTLTINSLQPDDFATYYCQQYKTFSRPFGQGTKVEIK
# B18: ADI-20983 (antibody, V domains shown)
# VH: EVQLVESGGALVQPGGSLRLSCSASGFTFSSYAMHWVRQAPGKGLEYVSAINNFGDKTYYTDSVEGRFTISRDNSKKTLYLQMSSLRPEDTAVYYCVKDRGYCSSPSCYAVPYYYFYGMDVWGQGTTVTVSS
# VL: EIVMTQSPSSLSASVGDRVTITCQASQGISNYLHWYQQKPGKAPKLLIYDASNLEAGVPSRFSGSGAGTDFTFTISSLQPEDVATYYCQHYNNLPFTFGPGTKVDIK
# B19: ADI-20986 (antibody, V domains shown)
# VH: EVQLVESGGGLVQPGGSLRLSCVASGFTFSNYWMNWVRQAPGKGLEWVANIKEDGSEIKYVDSVKGRFTISRDNAKNSLYLQMNSLRAEDTAVYYCARTEDSSSWFVAIDYYNYMDVWGKGTTVTVSS
# VL: DIQVTQSPGTLSLSPGERATLSCRASQTVSSSYLAWYQQKPGQAPRLLFYGASSRATDIPDRFSASGSGTDFTLTIHRLEPEDFAVYYCQLYGRSPPYTFGQGTKVEIK
# B20: ADI-20988 (antibody, V domains shown)
# VH: EVQLVESGGEVKKPGASVKVSCKTSGYPFSNYGISWMRLAPGQGLEWMGWISSYNGNTYYTKKFQGRVSMTTDTSTSTAYMELRSLRSDDTAVYYCARDVPVIAAHTFEYWGQGTLVTVSS
# VL: ETTLTQSPLSLPVTLGQPASISCRSSESLVYSDGNTYLSWFQQRPGQSPRRIIYKVSNRDSGVPDRFSGSGSGTDFTLKISRVEAEDVGVYYCMQATHWPRDTFGQGTKVDIK
# notes: also called Ab 240
# Target: RSV prefusion F (preF), subtype A (respiratory syncytial virus, subtype A, UniProt P03420 26-513)
# Assay: BLI, IgG
row,Binder,Kd
1,B1,3.29 nM
2,B2,5.26 nM
3,B3,0.758 nM
4,B4,4.73 nM
5,B5,2.44 nM
6,B6,0.337 nM
7,B7,0.374 nM
8,B8,0.289 nM
9,B9,0.36 nM
10,B10,0.301 nM
11,B11,0.296 nM
12,B12,1.83 nM
13,B13,0.333 nM
14,B14,0.308 nM
15,B15,0.291 nM
16,B16,0.979 nM
17,B17,4.88 nM
18,B18,0.213 nM
19,B19,0.414 nM
20,B20,0.294 nM

# Target: T1, RSV postfusion F (postF), subtype A (respiratory syncytial virus, subtype A, UniProt P03420 26-513)
# T1 construct: also called F ΔFP; Postfusion subtype A
# Assay: BLI, IgG
Binder,binding result,Kd
B1,no binding,
B2,no binding,
B3,no binding,
B4,no binding,
B5,no binding,
B6,no binding,
B7,no binding,
B8,no binding,
B9,no binding,
B10,no binding,
B11,no binding,
B12,no binding,
B13,no binding,
B14,no binding,
B15,no binding,
B16,no binding,
B17,no binding,
B18,,2.05 nM
B19,no binding,
B20,no binding,

# Target: RSV prefusion F (preF), subtype B (respiratory syncytial virus, subtype B)
# Assay: BLI, IgG
row,Binder,Kd
1,B1,4.02 nM
2,B2,1.67 nM
3,B3,0.986 nM
4,B4,8.94 nM
5,B5,1.53 nM
6,B6,0.43 nM
7,B7,0.504 nM
8,B8,0.463 nM
9,B9,2.49 nM
10,B10,0.409 nM
11,B11,0.344 nM
12,B12,2.55 nM
13,B13,0.544 nM
14,B14,0.417 nM
15,B15,0.36 nM
16,B16,4 nM
17,B17,5.45 nM
18,B18,1.17 nM
19,B19,1.25 nM
20,B20,1.29 nM
